Experimental data: US20250320288A1, “METHOD OF TREATING VITILIGO WITH INTERFERON-GAMMA ANTIBODY” (Elixiron Immunotherapeutics (Hong Kong), priority 2022, published 2025)
Entries after “also recorded” stand apart in the source; their conditions may differ.

Tests used:
[1] = tested on: CXCR3 expression on CD4+ T cells; test: CXCR3 expression on CD4+ T cells of activated PBMCs (flow cytometry); format: cell-based, human; details: 3 individual donors
Protocol: Materials and methods: PBMCs from healthy adult donors were isolated from whole blood using Ficoll-Paque density gradient centrifugation. PBMCs were cultured in a humidified 37° C. incubator for 24 hours in RPMI-1640 culture medium supplemented with 5% human serum, and standard antibiotics, 2-ME and HEPES. PBMCs were then seeded at 1×10^6 cells/well with 1 mL fresh culture medium/well in a 24-well plate and stimulated by mixing cells with human T cell TransAct (1:200). Antibodies indicated in the Results were then added and mixed well. After 2 days of culture, PBMCs were collected, washed with PBS three times, re-suspended in culture medium and re-cultured with indicated antibodies for an additional 2 days.
PBMCs were treated as required (see above) and then harvested for flow cytometry antibody staining, using anti-human CD4, anti-human CD8, anti-human CD56 and anti-human CXCR3 antibodies for 30 minutes on ice in the dark. PBMCs were then washed twice with FACS buffer and the expression of CXCR3 determined by flow cytometry using an Attune NxT flow cytometry. Flow cytometry data analysis was performed using FlowJo software.

melanocytes = test: Intracellular ROS in melanocytes (CM-H2DCFDA); format: cell-based, human; details: melanocytes
Protocol: Materials and methods: For intracellular ROS measurement, melanocytes were washed with PBS and incubated with 20 μM CM-H2DCFDA (Invitrogen) for 30 min at 37° C. in the dark. The cells were resuspended with PBS and examined with flow cytometry at an excitation wavelength of 488 nm and an emission wavelength of 530 nm; the data were analyzed with FlowJo.

recombinant human IFN-γ = target: T1, recombinant human IFN-γ (Homo sapiens, UniProt P01579); test: EI-001 neutralization of IFN-γ, restoration of melanocyte melanogenesis; format: cell-based; details: addition of 2A6Q
T1 sequence (P01579 24-161 limits assumed): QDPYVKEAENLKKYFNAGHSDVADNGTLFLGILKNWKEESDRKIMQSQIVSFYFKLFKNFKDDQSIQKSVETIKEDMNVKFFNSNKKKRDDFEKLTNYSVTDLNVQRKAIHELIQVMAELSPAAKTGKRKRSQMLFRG
Protocol: Materials and methods: To examine the dose-dependency of IFN-γ inhibition of HEMn-DP cell melanogenesis, HEMn-DP cells were seeded into a 24-well plate at a concentration of 200,000 cells/well in 1 mL assay medium (M254 supplemented with 1× HMGS, 10 ng/mL PMA plus Penicillin-Streptomycin) with serial dilutions of IFN-γ, followed by incubation at 37° C. for 7 days. The cell assay medium was replaced by fresh medium with serially titrated concentrations of IFN-γ on day 3 and day 5. On day 7, cells were first washed with PBS twice, lysed in 250 μL of 1N NaOH/10% DMSO solution, then incubated at 80° C. for 1 hr. After lysis, each lysate was transfer to 96 well plate, and absorbance of melanin was then measured at […]. The relative melanin quantity was normalized with cell viability of each sample which was measured by CellTiter-Glo kit, and data were analyzed using nonlinear regression curve fit using GraphPad Prism7. To determine the potency of EI-001, HEMn-DP cells were seeded as previously described, and IFN-γ pre-incubated with indicated amounts of EI-001 for 25 min in 1 mL of assay medium. After incubation, the mixture was added to each well (final IFN-γ concentration is 20 ng/ml). Melanin content of melanocytes was determined as previously described.

B1: EI-001: human monoclonal anti-IFN-γ neutralizing antibody; VH SEQ ID NO: 165, VL SEQ ID NO: 113; N76Q removes VH glycosylation site (antibody, listed as Homo sapiens, V domains shown)
VH: EVQLVESGGGLVKPGDSLTVSCVASGFTFSNYFIHWVRQAPGKGLEWVATISGRTKYMFYSDSLRGRFTVSRDNAQNSVYLHMSSLRGEDTALYYCVRGYDHSDSNSAADLLHWGRGTLVTVSS
VL: NFMLTQPLSVSGYPGKTIVISCVRSSGSVASHYVQWFQQRPGSAPAMVIYEDSHRPSGIPDRFSGSVDASSNSASLTISGLKTEDEADYFCQSYYGNNQVLFGGGTKLTVL
modifications: Recombinant variant antibody sequence
notes: human monoclonal anti-IFN-γ neutralizing antibody; N76Q removes VH glycosylation site
IC50 of EI-001 to inhibit CXCR3 expression on CD4+ T cells [1]: 0.279 to 1.313 µg/mL
reversal of IFN-γ induced ROS / cellular oxidative stress (melanocytes): reverses the ROS
rescue of IFN-γ induced decrease in melanin content (recombinant human IFN-γ): can be rescued; also recorded: reverses
